Results on 10 molecules are retold here after article PMC8277577 (Nature, 2021).

Substitutions are numbered along the chain they refer to.

Broadly, the Kd is the equilibrium constant for the complex coming apart. High values mean weaker binding, low ones tighter binding.

The labels stand for the following.
B1: C1010 (antibody, V domains shown)
VH: QVQLVESGGGVVQPGRSLRLSCAASGFTFSSYAMHWVRQAPGKGLEWVAVISYDGSNKYYADSVKGRFTISRDNSKNTLYLQMNSLRAEDTAVYYCAKKGQPYCGGDCYFYYFDYWGQGTLVTVSS
VL: DIQMTQSPSSLSASLGDRVTITCQASQDISNYLNWYQQKPGKAPKLLIYDASNLETGVPSRFSGSGSGTDFTFTISSLQPEDIATYYCQQYDNLPPITFGQGTRLEIK
notes: source: recombinant, purified
B2: C1011 (antibody, V domains shown)
VH: QVQLVESGGGVVQPGRSLRLSCAVSGFTFSHYAMHWVRQAPGKGLEWVAVISYDGADKYYADSVRGRFTIARDNSKNTLFLQMSSLRPEDTAVYYCAKKGQPYCGGDCHFYYLDYWGQGTLVTVSS
VL: B1 VL with L15V, Y32H, P80A
notes: source: recombinant, purified
B3: C916 (antibody, V domains shown)
VH: EVQLVESGGGLVQPGGSLRLSCAASGFTFSNYDMHWVRQATGRGLEWVSTIGTAGDTYYPGSVKGRFTISRENAKNSLYLQMNSLRAGDTALYYCARVRYDSSGYFWSLDYWGQGTLVTVSS
VL: not shown
notes: source: recombinant, purified
B4: C917 (antibody, V domains shown)
VH: B3 VH with R43K, E46D, L92V, Y100F, S102T
VL: not shown
notes: source: recombinant, purified
B5: C936 (antibody, V domains shown)
VH: EVQLVESGGGLIQPGGSLRLSCAASGFTVSSNYMSWVRQAPGKGLEWVSVIYSGGSTFYADSVKGRFTISRDNSKNTLYLQMNSLRAEDTAVYYCARDLGTGLFDYWGQGTLVTVSS
VL: DIQLTQSPSFLSASVGDRVTITCRASQGISSYLAWYQQKPGKAPKLLIYAASTLQSGVPSRFSGSGSGTEFTLTISSLQPEDFATYYCQQLDSYPPGTFGPGTKVDIK
notes: source: recombinant, purified
B6: C960 (antibody, V domains shown)
VH: QVQLVESGGGVVQPGRSLTLSCTASGFTFNRFAMFWVRQAPGKGLEWVAVISFDGSYEHYAESVKGRFAIFRDNPKNTLYLQMNSLRAEDTAVYYCAKSPINYCANGVCYPDSWGQGTLVTVSS
VL: NFMLTQPHSVSESPGKTVTISCTGSSGSIANNYVQWYQQRPGSAPTTVIFEDTQRPSGVPDRFSGSIDSSSNSASLNISGLKPEDEADYYCQSFDVNSRWVFGGGTKLTVL
notes: source: recombinant, purified
B7: C841 (antibody, V domains shown)
VH: EVQLVESGGGLVQPGGSLRLSCAASGFTFSIFSMNWVRQAPGKGLEWISYISSSSGSRHYADSVKGRFTISRDNAKNSLYLQMNNLRDEDTAMYYCAREAHDGALTGYGDYLNWFDPWGQGVLVTVSS
VL: SYELTQPPSVSVAPGKTARIPCGGDSVGSKSVHWYQQKSGQAPVLVIHSDSDRPSGIPERFSGSNSGNTATLTITGVAAGDEADYYCHVWDTIGDRFYWVFGGGTKLTVL
notes: source: recombinant, purified
B8: C581 (antibody, V domains shown)
VH: EVQLVQSGAEVKKPGESLKISCKGSGYRFTSYWIAWVRQMPGKGLEWMGIIYPGDSDTRYSPSFQGQVTISADQSISTAYLQWSSLKASDTAMYYCARGGPPGGVKLELTDYWGQGALVTVSS
VL: not shown
notes: source: recombinant, purified
B9: C908 (antibody, V domains shown)
VH: B8 VH with G24A, R28S, S31I, A35G, D55E, D57E, Q74K, S84R, A117T
VL: not shown
notes: source: recombinant, purified
B10: C1015 (antibody, V domains shown)
VH: QVQLQESGPRLVKPSGSLSLTCAVSGGSLSSSNWWNWVRQSPEKGLEWIGEIFHSGSTYYNPSLKSRVTISVDKSKNHFSLNLRSVTAADTAVYYCAGSYSNYIGGVWFDPWGQGTLVTVSS
VL: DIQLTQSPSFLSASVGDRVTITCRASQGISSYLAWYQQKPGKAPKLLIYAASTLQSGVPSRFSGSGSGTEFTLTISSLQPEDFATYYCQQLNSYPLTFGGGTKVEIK
notes: source: recombinant, purified

One assay concerns the target T1, SARS-CoV-2 receptor binding domain (RBD) (SARS-CoV-2, GenBank MN985325.1 …, UniProt P0DTC2). Kind of assay: BLI. Conditions: both partners purified.
B1 came in with a Kd of 16.3 nM.

Molecule B2 came in with a Kd of 0.0121 nM.

B3 showed a Kd of 2.92 nM.

Molecule B4 had a dissociation constant (Kd) of 0.999 nM.

With B5, the dissociation constant (Kd) turned out to be 157 nM.

As for B6, the dissociation constant (Kd) is 1.5 nM.

Molecule B7 gave a dissociation constant (Kd) of 6.08 nM.

B8 gave a Kd of 0.0725 nM.

For B9, the dissociation constant (Kd) came out at 0.00384 nM.

The target of another assay is T1, SARS-CoV-2 receptor binding domain (RBD). Kind of assay: ELISA. The conditions noted are these: both partners purified. A general note: ELISA stands for enzyme-linked immunosorbent assay.
Take B10: the binding result was “no binding (tested: >1000 ng/ml)”.
